From publication PMC5678113, “Substrate Specificity and Allosteric Regulation of a D-Lactate Dehydrogenase from a Unicellular Cyanobacterium are Altered by an Amino Acid Substitution” (Scientific Reports, 2017)
Where a chain is given by its changes, count along the chain named. Names may count otherwise.

Tests used:
Assay in all cases: NADH oxidation followed at A340
SyDdh (GST-SyDdh) [1] = target: T1, SyDdh (GST-SyDdh) (Synechocystis sp. PCC 6803, UniProt P74586); type: biochemical; conditions: for remaining activity at 2500 µM: read-out: % residual activity at 2.5 mM
T1 construct: gene ddh; Full ddh ORF, GST-tagged (tag kept, pGEX5X-1), expressed in E. coli DH5alpha, glutathione-Sepharose purified
T1 sequence (P74586 1-333): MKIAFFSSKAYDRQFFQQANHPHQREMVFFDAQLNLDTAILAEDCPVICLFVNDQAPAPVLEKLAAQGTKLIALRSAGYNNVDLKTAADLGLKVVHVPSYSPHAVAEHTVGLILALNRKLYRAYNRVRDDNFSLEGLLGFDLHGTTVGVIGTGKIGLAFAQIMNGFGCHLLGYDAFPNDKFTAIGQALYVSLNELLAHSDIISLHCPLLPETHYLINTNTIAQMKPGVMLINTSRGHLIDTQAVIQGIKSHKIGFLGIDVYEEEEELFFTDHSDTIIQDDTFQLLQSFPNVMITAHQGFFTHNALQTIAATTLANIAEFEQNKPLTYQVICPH

SyDdh (GST-SyDdh) [2] = target: T2, SyDdh (GST-SyDdh) (Synechocystis sp. PCC 6803, UniProt P74586, S234G); type: biochemical; conditions: pH 7.5, 30 °C, 0.1 mM NADH, no Mg2+; substrate inhibition
T2 construct: gene ddh; Full ddh ORF, GST-tagged (tag kept, pGEX5X-1), expressed in E. coli DH5alpha, glutathione-Sepharose purified
T2 sequence (P74586 entry or part of it S234G): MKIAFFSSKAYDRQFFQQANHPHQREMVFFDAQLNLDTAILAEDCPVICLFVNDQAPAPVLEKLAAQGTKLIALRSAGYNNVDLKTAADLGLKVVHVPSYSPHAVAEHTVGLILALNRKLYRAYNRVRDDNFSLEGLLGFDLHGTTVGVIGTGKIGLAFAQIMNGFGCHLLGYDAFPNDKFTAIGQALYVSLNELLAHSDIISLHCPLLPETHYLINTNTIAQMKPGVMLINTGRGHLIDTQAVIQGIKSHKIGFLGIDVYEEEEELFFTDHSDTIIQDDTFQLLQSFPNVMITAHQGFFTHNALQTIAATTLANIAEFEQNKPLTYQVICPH
From the text: (§1) NADH oxidation followed at A340 on SyDdh (GST-SyDdh)

SyDdh (GST-SyDdh) [3] = target: T1, SyDdh (GST-SyDdh); type: biochemical; conditions: pH 7.5, 30 °C, 0.1 mM NADH, no Mg2+; substrate inhibition
From the text: as §1

SyDdh (GST-SyDdh) [4] = target: T3, SyDdh (GST-SyDdh) (Synechocystis sp. PCC 6803, UniProt P74586, Q14E); type: biochemical; conditions: pH 7.5, 30 °C, 0.1 mM NADH, no Mg2+; substrate inhibition
T3 construct: gene ddh; Full ddh ORF, GST-tagged (tag kept, pGEX5X-1), expressed in E. coli DH5alpha, glutathione-Sepharose purified
T3 sequence (P74586 entry or part of it Q14E): as the sequence (P74586 entry or part of it S234G) above, with Q14E, G234S counted along it
From the text: as §1

[5] = substrate: NC(=O)C1=CN([C@@H]2O[C@H](COP(=O)(O)OP(=O)(O)OC[C@H]3O[C@@H](n4cnc5c(N)ncnc54)[C@H](O)[C@@H]3O)[C@@H](O)[C@H]2O)C=CC1; type: biochemical, Synechocystis sp. PCC 6803; conditions: pH 7.5, 30 °C, varied: cofactor
[6] = substrate: CC(=O)C(=O)O; type: biochemical, Synechocystis sp. PCC 6803; conditions: pH 7.5, 30 °C, 0.1 mM NADH, no Mg2+, Hill coefficient 2.51
[7] = substrate: O=C(O)CC(=O)C(=O)O; type: biochemical, Synechocystis sp. PCC 6803; conditions: pH 7.5, 30 °C, 0.1 mM NADH, no Mg2+
From the text: as §1

[8] = substrate: CC(=O)C(=O)O; type: biochemical, Synechocystis sp. PCC 6803; conditions: pH 7.5, 30 °C, 0.1 mM NADH, no Mg2+
From the text: as §1

For `Nc1ncnc2c1ncn2[C@@H]1O[C@H](COP(=O)(O)OP(=O)(O)OP(=O)(O)O)[C@@H](O)[C@H]1O` [ATP], the remaining activity at 2500 µM (SyDdh (GST-SyDdh) [1]) was 72%.

Work on `O=P(O)(O)OC[C@H]1OC(O)(COP(=O)(O)O)[C@@H](O)[C@@H]1O` (some centres unmarked) [FBP] yielded an activity at 2500 µM (SyDdh (GST-SyDdh) [1]; read-out: % activity at 2.5 mM) of 134%.

Molecule `NC(=O)C(=O)O` [oxamate] has a remaining activity at 2500 µM (SyDdh (GST-SyDdh) [1]) of 42%.

For `O=C(O)CC(=O)C(=O)O` [oxaloacetate], the “K i” value (SyDdh (GST-SyDdh) [2]) was 5.74 ± 1.04 mM and the “K i” value (SyDdh (GST-SyDdh) [3]) was 8.56 ± 3.39 mM.

For `CC(=O)C(=O)O` [pyruvate], the “K i” value (SyDdh (GST-SyDdh) [4]) was 16.51 ± 5.98 mM.

B1: SyDdh (GST-SyDdh) (Synechocystis sp. PCC 6803 substr. Kazusa) (protein)
chain: T1 sequence (P74586 1-333)
notes: Full ddh ORF, GST-tagged (tag kept, pGEX5X-1), expressed in E. coli DH5alpha, glutathione-Sepharose purified
In the case of B1, the K0.5 [5] is reported as 0.028 ± 0.002 mM, the kcat [5] is reported as 2.60 ± 0.25 s⁻¹ and the K0.5 [6] is reported as 0.38 ± 0.04 mM. It also gave a kcat [6] of 2.71 ± 0.26 s⁻¹ and a kcat/Km [6] of 7140 ± 1150 M⁻¹ s⁻¹.

B2: SyDdh (GST-SyDdh) (Synechocystis sp. PCC 6803 substr. Kazusa; S234G) (protein)
chain: T1 sequence (P74586 1-333) with S234G
notes: as for B1
Work on B2 yielded a K0.5 ([7]; substrate-inhibition fit) of 0.59 ± 0.05 mM, a kcat ([7]; substrate-inhibition fit) of 1.27 ± 0.24 s⁻¹ and a kcat/Km ([7]; substrate-inhibition fit) of 2190 ± 520 M⁻¹ s⁻¹. The K0.5 ([8]; Hill coefficient 1.64) was 2.10 ± 0.18 mM, the kcat ([8]; Hill coefficient 1.64) was 1.71 ± 0.26 s⁻¹ and the kcat/Km ([8]; Hill coefficient 1.64) was 820 ± 130 M⁻¹ s⁻¹.

B3: SyDdh (GST-SyDdh) (Synechocystis sp. PCC 6803 substr. Kazusa; Q14E) (protein)
chain: T1 sequence (P74586 1-333) with Q14E
notes: as for B1
B3 gave a K0.5 ([7]; Hill coefficient 0.95) of 1.71 ± 0.38 mM, a kcat ([7]; Hill coefficient 0.95) of 2.38 ± 0.1 s⁻¹ and a kcat/Km ([7]; Hill coefficient 0.95) of 1460 ± 310 M⁻¹ s⁻¹. The K0.5 ([8]; substrate-inhibition fit) was 0.52 ± 0.10 mM, the kcat ([8]; substrate-inhibition fit) was 4.11 ± 0.71 s⁻¹ and the kcat/Km ([8]; substrate-inhibition fit) was 7980 ± 350 M⁻¹ s⁻¹.
